In patent publication US20260263521A1 (AIMED BIO, published 2026):

T1: human CD200RLa (Sino Biological, 11620-H08H) recombinant protein (human, UniProt Q6Q8B3 24-239)
T1 construct: Bought; construct not described
T1 sequence (looked up): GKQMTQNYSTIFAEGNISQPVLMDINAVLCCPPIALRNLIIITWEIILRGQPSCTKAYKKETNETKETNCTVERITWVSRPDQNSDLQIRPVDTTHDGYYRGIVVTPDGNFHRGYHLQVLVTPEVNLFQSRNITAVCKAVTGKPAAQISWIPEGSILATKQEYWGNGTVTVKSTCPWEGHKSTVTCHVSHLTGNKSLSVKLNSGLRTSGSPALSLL

T2: human CD200R1 expressed on cells (Jurkat-CD200R1, U937-CD200R1, HH cells) (human, UniProt Q8TD46 25-348)
T2 construct: whole, on cells; also called HH (CRL-2105); cell surface-expressed CD200R1
T2 sequence (looked up): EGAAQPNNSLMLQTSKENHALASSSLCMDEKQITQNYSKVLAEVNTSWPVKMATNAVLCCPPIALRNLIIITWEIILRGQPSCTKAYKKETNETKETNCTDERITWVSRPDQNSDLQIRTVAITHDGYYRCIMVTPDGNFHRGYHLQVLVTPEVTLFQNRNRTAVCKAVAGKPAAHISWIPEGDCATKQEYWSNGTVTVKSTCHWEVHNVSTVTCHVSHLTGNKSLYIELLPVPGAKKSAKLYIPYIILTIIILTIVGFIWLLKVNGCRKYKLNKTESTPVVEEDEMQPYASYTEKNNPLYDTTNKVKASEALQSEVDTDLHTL

T3: mouse CD200R1 protein (R&D systems, 2554-CD) (mouse, UniProt Q9ES57 26-238, limits assumed)
T3 construct: Bought; construct not described
T3 sequence (looked up): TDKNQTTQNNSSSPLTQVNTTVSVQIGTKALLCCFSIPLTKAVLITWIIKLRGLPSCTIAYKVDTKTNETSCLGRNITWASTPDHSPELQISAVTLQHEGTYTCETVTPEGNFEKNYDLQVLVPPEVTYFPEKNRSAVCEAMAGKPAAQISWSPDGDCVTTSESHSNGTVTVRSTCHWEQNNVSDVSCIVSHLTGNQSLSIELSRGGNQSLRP

T4: recombinant human CD200R1 Fc chimera protein, CF (R&D systems, 3414-CD) (human, UniProt Q8TD46 27-266)
T4 construct: Bought; also called CD200R1-Fc protein; human CD200R1 Fc protein; Fc part of the bought chimera not given
T4 sequence (looked up): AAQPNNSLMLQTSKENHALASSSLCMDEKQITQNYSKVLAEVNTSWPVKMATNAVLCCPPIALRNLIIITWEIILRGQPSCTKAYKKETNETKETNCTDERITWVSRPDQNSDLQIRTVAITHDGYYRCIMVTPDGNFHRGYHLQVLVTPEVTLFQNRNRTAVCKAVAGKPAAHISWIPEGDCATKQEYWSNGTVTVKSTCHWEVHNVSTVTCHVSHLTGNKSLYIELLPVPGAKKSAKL

T5: Hybrid CD200R1 MH (mouse;human, UniProt Q9ES57;Q8TD46)
T5 construct: single domain; mouse D1 over human D2; also called MH hybrid domain; P001 MH domain
T5 sequence (hybrid extracellular part, looked up): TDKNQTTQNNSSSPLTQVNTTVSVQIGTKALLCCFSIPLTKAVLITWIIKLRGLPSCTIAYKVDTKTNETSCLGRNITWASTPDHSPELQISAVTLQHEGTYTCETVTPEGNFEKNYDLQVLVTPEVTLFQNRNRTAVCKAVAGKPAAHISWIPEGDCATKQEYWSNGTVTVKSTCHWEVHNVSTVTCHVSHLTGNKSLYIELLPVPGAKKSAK

B1: P001002 (IgG) (antibody, V domains shown)
VH: EVQLLESGGGLVQPGGSLRLSCAASGFTFSSYAMSWVRQAPGKGLEWVSWISYDSSSKYYADSVKGRFTISRDNSKNTLYLQMNSLRAEDTAVYYCARGVVQPYLWTEFDYWGQGTLVTVSS
VL: QSVLTQPPSASGTPGQRVTISCSGSSSNIGSNYVNWYQQLPGTAPKLLIYSDSHRPSGVPDRFSGSKSGTSASLAISGLRSEDEADYYCGSWDDSLSGYVFGGGTKLTVL
B2: P001012 (IgG) (antibody, V domains shown)
VH: EVQLLESGGGLVQPGGSLRLSCAASGFTFSGYDMSWVRQAPGKGLEWVSGISSSGGNKYYADSVKGRFTISRDNSKNTLYLQMNSLRAEDTAVYYCARAIRPCISAPCYYDDAMDVWGQGTLVTVSS
VL: QSVLTQPPSASGTPGQRVTISCTGSSSNIGSNYVSWYRQLPGTAPKLLIYSDSQRPSGVPDRFSGSKSGTSASLAISGLRSEDEADYYCGSWDYSLSAYVFGGGTKLTVL

Legend:
[1] = molecular target: T1, human CD200RLa (Sino Biological, …); assay: ELISA, plate-bound human CD200RLa (2 ug/mL), antibody 0.0192-300 nM, O.D 450 nm; panel 'recombinant human CD200RLa'
Outline: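 Plates coated overnight (16 h, 4° C) with human or cynomolgus CD200RLa recombinant protein, blocked with 3% skim milk; bound antibody detected by TMB colour development, reaction stopped before reading.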

[2] = molecular target: T2, human CD200R1 expressed on cells …; assay: flow cytometry on Jurkat-CD200R1 and HH cells, 500 nM antibody in IgG1 form
Outline: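 Cells at 1×10⁵ per well incubated with antibody 1 h at 4 °C, then Alexa-647 anti-human IgG (H+L) secondary for 30 min at 4 °C. After two washes, binding read by flow cytometry.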

[3] = molecular target: T3, mouse CD200R1 protein (R&D systems, …); assay: ELISA, plate-bound mouse CD200R1 (2 ug/mL), IgG 0.0192-300 nM, OD 450 nm; panel 'mouse CD200R1'
Outline: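 Wells coated with antigen at 2 μg/mL (4 °C, 16 h) and blocked with 3% skim milk before IgG addition. Bound antibody developed with TMB, reaction stopped, absorbance read at 450 nm.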

[4] = molecular target: T4, recombinant human CD200R1 Fc chimera …; assay: competition ELISA: antibody on coated human CD200R1-Fc, competitor rhCD200-Fc at 1 µg/mL, bound CD200 detected
Protocol: 96-well plates were coated with human CD200R1 (R&D systems, 3414-CD) recombinant protein at a concentration of 2 μg/mL at 4° C. for 16 hours, and blocked with 3% skim milk for 1 hour. […] The result was washed with PBST and distilled water, and the samples were bound with Pierce™ High Sensitivity Streptavidin-HRP (Thermo Scientific, 21130) at room temperature for 1 hour, and then washed again with PBST and distilled water. TMB substrate solution (Thermo Scientific, 34029, 1-Step™ Ultra TMB-ELISA substrate solution) was added to develop the color. The reaction was stopped with stop solution (Invitrogen, SS04, ELISA Stop Solution).

[5] = molecular target: T4, recombinant human CD200R1 Fc chimera …; assay: ELISA, plate-bound human CD200R1-Fc (2 ug/mL), IgG 0.0192-300 nM, anti-human IgG F(ab')2-HRP, OD 450 nm; panel 'human CD200R1'
Protocol: 96-well plates were coated with human CD200R1 (R&D systems, 3414-CD) and mouse CD200R1 protein (R&D systems, 2554-CD) at a concentration of 2 μg/mL at 4° C. for 16 hours and then were blocked with 3% skim milk.
Color was developed with a TMB substrate solution (Thermo Scientific, 34029, 1-Step™ TMB-ELISA Ultra Substrate Solution). The color reaction was stopped with stop solution (Invitrogen, SS04, ELISA Stop Solution). The absorbance was measured at an optical density of 450 nm.

Hybrid CD200R1 MH = molecular target: T5, Hybrid CD200R1 MH; assay: ELISA, plate-bound MH hybrid (1 ug/mL), antibody 0.0192-300 nM, O.D 450 nm; panel 'P001 MH domain-3)'
Protocol: Recombinant proteins were produced from the extracellular Ig-like V-type domain and Ig-like C2-type domain of human CD200R1, each designed as human-mouse (HM hybrid domain) and mouse-human (MH hybrid domain) recombinant proteins. A 96-well plate was coated at a concentration of 1 μg/mL with each protein at 4° C. for 16 hours and blocked with 3% skim milk. […] After color development with TMB substrate solution (Thermo Scientific, 34029, 1-Step™ Ultra TMB-ELISA Substrate Solution), the color reaction was stopped with a stop solution (Invitrogen, SS04, ELISA Stop Solution), and the absorbance was measured at an O.D. of 450 nm.

Binder	binding result [1]	MFI normalized to P001017 (chimeric OX108), % [2]	binding result [3]	IC50 [4]	EC50 (read off the curve) [5]	binding result (Hybrid CD200R1 MH)
B1	no binding (tested: 300 nM)	> 50%	no binding (tested: 300 nM)	11.5 nM	~0.8 nM	
B2	no binding (tested: 300 nM)		no binding (tested: 300 nM)			no binding (tested: 300 nM)
